Experimental data as given in IntAct's records for PubMed 25910212.

B1: SWI/SNF-related matrix-associated actin-dependent regulator of chromatin subfamily A member 2 (Homo sapiens), P51531-1 (parent)
chain: MSTPTDPGAMPHPGPSPGPGPSPGPILGPSPGPGPSPGSVHSMMGPSPGPPSVSHPMPTMGSTDFPQEGMHQMHKPIDGIHDKGIVEDIHCGSMKGTGMRPPHPGMGPPQSPMDQHSQGYMSPHPSPLGAPEHVSSPMSGGGPTPPQMPPSQPGALIPGDPQAMSQPNRGPSPFSPVQLHQLRAQILAYKMLARGQPLPETLQLAVQGKRTLPGLQQQQQQQQQQQQQQQQQQQQQQQPQQQPPQPQTQQQQQPALVNYNRPSGPGPELSGPSTPQKLPVPAPGGRPSPAPPAAAQPPAAAVPGPSVPQPAPGQPSPVLQLQQKQSRISPIQKPQGLDPVEILQEREYRLQARIAHRIQELENLPGSLPPDLRTKATVELKALRLLNFQRQLRQEVVACMRRDTTLETALNSKAYKRSKRQTLREARMTEKLEKQQKIEQERKRRQKHQEYLNSILQHAKDFKEYHRSVAGKIQKLSKAVATWHANTEREQKKETERIEKERMRRLMAEDEEGYRKLIDQKKDRRLAYLLQQTDEYVANLTNLVWEHKQAQAAKEKKKRRRRKKKAEENAEGGESALGPDGEPIDESSQMSDLPVKVTHTETGKVLFGPEAPKASQLDAWLEMNPGYEVAPRSDSEESDSDYEEEDEEEESSRQETEEKILLDPNSEEVSEKDAKQIIETAKQDVDDEYSMQYSARGSQSYYTVAHAISERVEKQSALLINGTLKHYQLQGLEWMVSLYNNNLNGILADEMGLGKTIQTIALITYLMEHKRLNGPYLIIVPLSTLSNWTYEFDKWAPSVVKISYKGTPAMRRSLVPQLRSGKFNVLLTTYEYIIKDKHILAKIRWKYMIVDEGHRMKNHHCKLTQVLNTHYVAPRRILLTGTPLQNKLPELWALLNFLLPTIFKSCSTFEQWFNAPFAMTGERVDLNEEETILIIRRLHKVLRPFLLRRLKKEVESQLPEKVEYVIKCDMSALQKILYRHMQAKGILLTDGSEKDKKGKGGAKTLMNTIMQLRKICNHPYMFQHIEESFAEHLGYSNGVINGAELYRASGKFELLDRILPKLRATNHRVLLFCQMTSLMTIMEDYFAFRNFLYLRLDGTTKSEDRAALLKKFNEPGSQYFIFLLSTRAGGLGLNLQAADTVVIFDSDWNPHQDLQAQDRAHRIGQQNEVRVLRLCTVNSVEEKILAAAKYKLNVDQKVIQAGMFDQKSSSHERRAFLQAILEHEEENEEEDEVPDDETLNQMIARREEEFDLFMRMDMDRRREDARNPKRKPRLMEEDELPSWIIKDDAEVERLTCEEEEEKIFGRGSRQRRDVDYSDALTEKQWLRAIEDGNLEEMEEEVRLKKRKRRRNVDKDPAKEDVEKAKKRRGRPPAEKLSPNPPKLTKQMNAIIDTVINYKDRCNVEKVPSNSQLEIEGNSSGRQLSEVFIQLPSRKELPEYYELIRKPVDFKKIKERIRNHKYRSLGDLEKDVMLLCHNAQTFNLEGSQIYEDSIVLQSVFKSARQKIAKEEESEDESNEEEEEEDEEESESEAKSVKVKIKLNKKDDKGRDKGKGKKRPNRGKAKPVVSDFDSDEEQDEREQSEGSGTDDE
partner: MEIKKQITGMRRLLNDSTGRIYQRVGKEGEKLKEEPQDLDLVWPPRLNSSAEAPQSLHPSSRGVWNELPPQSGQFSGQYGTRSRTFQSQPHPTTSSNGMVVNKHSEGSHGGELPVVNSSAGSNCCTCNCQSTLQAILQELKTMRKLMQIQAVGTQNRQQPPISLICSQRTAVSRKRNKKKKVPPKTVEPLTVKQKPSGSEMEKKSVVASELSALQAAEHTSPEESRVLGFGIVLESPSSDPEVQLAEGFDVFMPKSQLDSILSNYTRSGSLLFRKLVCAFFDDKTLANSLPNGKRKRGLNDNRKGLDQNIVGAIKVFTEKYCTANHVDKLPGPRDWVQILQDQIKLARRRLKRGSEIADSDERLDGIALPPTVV
B2: Peripheral myelin protein 22 (Homo sapiens), Q01453 (parent)
chain: MLLLLLSIIVLHVAVLVLLFVSTIVSQWIVGNGHATDLWQNCSTSSSGNVHHCFSSSPNEWLQSVQATMILSIIFSILSLFLFFCQLFTLTKGGRFYITGIFQILAGLCVMSAAAIYTVRHPEWHLNSDYSYGFAYILAWVAFPLALLSGVIYVILRKRE
partner: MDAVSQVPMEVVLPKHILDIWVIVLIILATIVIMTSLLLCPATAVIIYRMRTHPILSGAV
B3: Polycomb complex protein BMI-1 (Homo sapiens), P35226 (parent)
chain: MHRTTRIKITELNPHLMCVLCGGYFIDATTIIECLHSFCKTCIVRYLETSKYCPICDVQVHKTRPLLNIRSDKTLQDIVYKLVPGLFKNEMKRRRDFYAAHPSADAANGSNEDRGEVADEDKRIITDDEIISLSIEFFDQNRLDRKVNKDKEKSKEEVNDKRYLRCPAAMTVMHLRKFLRSKMDIPNTFQIDVMYEEEPLKDYYTLMDIAYIYTWRRNGPLPLKYRVRPTCKRMKISHQRDGLTNAGELESDSGSDKANSPAGGIPSTSSCLPSPSTPVQSPHPQFPHISSTMNGTSNSPSGNHQSSFANRPRKSSVNGSSATSSG
partner: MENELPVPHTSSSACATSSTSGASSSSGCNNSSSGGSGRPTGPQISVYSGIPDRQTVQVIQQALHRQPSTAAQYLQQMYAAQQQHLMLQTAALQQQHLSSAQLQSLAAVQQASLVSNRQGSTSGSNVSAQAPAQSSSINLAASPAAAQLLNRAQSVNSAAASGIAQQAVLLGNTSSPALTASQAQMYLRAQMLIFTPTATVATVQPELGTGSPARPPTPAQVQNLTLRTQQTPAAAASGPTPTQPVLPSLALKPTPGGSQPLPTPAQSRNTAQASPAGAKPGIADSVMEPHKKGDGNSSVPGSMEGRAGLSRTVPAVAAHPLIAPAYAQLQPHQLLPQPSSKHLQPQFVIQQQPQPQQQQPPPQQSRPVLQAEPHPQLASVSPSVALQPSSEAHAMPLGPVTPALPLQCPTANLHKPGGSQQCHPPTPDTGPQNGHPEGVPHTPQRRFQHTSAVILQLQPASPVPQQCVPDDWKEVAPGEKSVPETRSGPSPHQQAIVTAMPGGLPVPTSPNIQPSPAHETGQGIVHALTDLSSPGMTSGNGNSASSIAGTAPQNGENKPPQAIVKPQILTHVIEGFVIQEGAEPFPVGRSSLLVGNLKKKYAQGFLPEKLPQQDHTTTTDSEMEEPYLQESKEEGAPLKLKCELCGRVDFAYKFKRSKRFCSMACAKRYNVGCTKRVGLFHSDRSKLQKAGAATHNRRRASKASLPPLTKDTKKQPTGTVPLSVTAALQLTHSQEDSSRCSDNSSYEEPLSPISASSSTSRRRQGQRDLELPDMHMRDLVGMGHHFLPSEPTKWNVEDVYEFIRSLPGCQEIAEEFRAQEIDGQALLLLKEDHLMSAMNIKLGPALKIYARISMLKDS
B4: Beta-crystallin A4 (Homo sapiens), P53673 (parent)
chain: MTLQCTKSAGPWKMVVWDEDGFQGRRHEFTAECPSVLELGFETVRSLKVLSGAWVGFEHAGFQGQQYILERGEYPSWDAWGGNTAYPAERLTSFRPAACANHRDSRLTIFEQENFLGKKGELSDDYPSLQAMGWEGNEVGSFHVHSGAWVCSQFPGYRGFQYVLECDHHSGDYKHFREWGSHAPTFQVQSIRRIQQ
partner: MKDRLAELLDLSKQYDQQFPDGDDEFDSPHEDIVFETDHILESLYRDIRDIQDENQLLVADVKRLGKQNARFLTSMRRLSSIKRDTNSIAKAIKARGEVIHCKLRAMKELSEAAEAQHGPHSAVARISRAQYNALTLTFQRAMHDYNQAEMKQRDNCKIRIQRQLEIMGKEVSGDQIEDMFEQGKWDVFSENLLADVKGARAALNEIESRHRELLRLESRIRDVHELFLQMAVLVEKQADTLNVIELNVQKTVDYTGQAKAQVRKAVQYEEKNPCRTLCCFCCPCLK

Variants of: B1
Conditions: with BEND7, Q8N7W2-2
With D1546E the “effect of a mutation on the interaction” value was “with no effect”.

Variants of: B1
Conditions: with BEND7, Q8N7W2-2
Remark: another data set of the same source
For D1546E, the “effect of a mutation on the interaction” value was “with no effect”.

Variants of: B2
Conditions: with smim3_human SMIM3, Q9BZL3
In the case of MLLLLLSIIVLHVAVLVLLFVSTIVSQWIVGNGHATDLWQNCSTSSSGNVHHCFSSSPNEWLQSVQATMILSIIFSILSLFLFFCQLFTLTKGGRFYITGIFQILAGLCVMSAAAIYTVRHPEWHLNSDYSYGFAYILAWVAFPLALLSGVIYVILGKRE [R157G], the “effect of a mutation on the interaction” value is reported as “disrupting interaction strength”.

Variants of: B3
Conditions: with PHC2, Q8IXK0-5
MHRTTRIKITELNPHLMYVLCGGYFIDATTIIECLHSFCKTCIVRYLETSKYCPICDVQVHKTRPLLNIRSDKTLQDIVYKLVPGLFKNEMKRRRDFYAAHPSADAANGSNEDRGEVADEDKRIITDDEIISLSIEFFDQNRLDRKVNKDKEKSKEEVNDKRYLRCPAAMTVMHLRKFLRSKMDIPNTFQIDVMYEEEPLKDYYTLMDIAYIYTWRRNGPLPLKYRVRPTCKRMKISHQRDGLTNAGELESDSGSDKANSPAGGIPSTSSCLPSPSTPVQSPHPQFPHISSTMNGTSNSPSGNHQSSFANRPRKSSVNGSSATSSG [C18Y] was tested, and the “effect of a mutation on the interaction” value was “disrupting interaction strength”.

Variants of: B4
Conditions: with stx11_human STX11, O75558
For MTLQCTKSAGPWKMVVWDEDGFQGRRHEFTAECPSVLELGFETVRSLKVLSGAWVGFEHAGFQGQQYILERGEYPSWDAWGGNTAYPAERLTSSRPAACANHRDSRLTIFEQENFLGKKGELSDDYPSLQAMGWEGNEVGSFHVHSGAWVCSQFPGYRGFQYVLECDHHSGDYKHFREWGSHAPTFQVQSIRRIQQ [F94S], the “effect of a mutation on the interaction” value was “disrupting interaction strength”. For MTLQCTKSAGPWKMVVWDEDGFQGRRHEFTAECPSVLELGFETVRSLKVLSGAWVGFEHAGFQGQQYIPERGEYPSWDAWGGNTAYPAERLTSFRPAACANHRDSRLTIFEQENFLGKKGELSDDYPSLQAMGWEGNEVGSFHVHSGAWVCSQFPGYRGFQYVLECDHHSGDYKHFREWGSHAPTFQVQSIRRIQQ [L69P], the “effect of a mutation on the interaction” value was “disrupting interaction strength”. For MTLQCTKSAGPWKMVVWDEDGFQGRRHEFTAECPSMLELGFETVRSLKVLSGAWVGFEHAGFQGQQYILERGEYPSWDAWGGNTAYPAERLTSFRPAACANHRDSRLTIFEQENFLGKKGELSDDYPSLQAMGWEGNEVGSFHVHSGAWVCSQFPGYRGFQYVLECDHHSGDYKHFREWGSHAPTFQVQSIRRIQQ [V36M], the “effect of a mutation on the interaction” value was “disrupting interaction strength”.
